According to the nanobody polyreactivity screen of Harvey et al. (2022):

Test: yeast display, Sf9 membrane polyspecificity reagent, FACS + sequencing; frameworks hold sequencing errors
Outline: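 A nanobody's polyreactivity label depends on the gate it was sorted from. Yeast display cells were stained with 10% biotinylated, detergent-solubilized Sf9 membrane reagent for 1 hour at 4 °C, enriched on streptavidin microbeads and sorted by FACS. The low and high (top ~1%) gates were set on anti-HA fluorescence for expression and streptavidin fluorescence for reagent binding.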

| Sequence | polyreactivity (PSR sort gate) |
| --- | --- |
| QVQLQESGGGLVQAGGSLRLSCAVSGTIFFPQDKGWYRQAPGREREYGAAIAEGTSTYYADSVKGRFTISRDNAKNTVYPQMYSLKPEDTEVNYCAAYRSTPQQFLYWGQGTQVTVSS | high polyreactivity |
| QVQLQESGGGLVQAGGSLRLTCAASGNISVTGFMGCYRQAPGKERELVASIGIGGTTYYADSVKGRFSISRDNAKNTVYLEMHSLKPEDTAVYYCAARYLYYAYSYWGQGTQVTVSS | low polyreactivity |
| QVQLQESGGGLVQAGGSLRLTCAASGSIFDGFNMGWYRQAPGKDREFVDAISYGASTYYADSVKGRFTVSRDNAINSVYLQMNSLKPEDTALYYWAVYDELYHVLVYWGRGTQVTVSS | low polyreactivity |
| QVQLQESGGGLVQAGGSLRLTCAASGTIFRFRYMGWPRQAPGKERELVAGINGGTTTYYADSVIGRFTISRDNAKNTVYLQRNSLKPDDTAVYNCAAGASRLTYYDYWGQGTQVTVSS | low polyreactivity |
| QVQLQESGGGLVQAGGSLRLWCAASRNISGSSDLGWYHQAPGKEREFVASITSGGTTYYADSVKGRFTISRDNAKNTVYLQMNSLKPEDTAVYYCAVGDPADAEFGYWGQGTQVTVSS | low polyreactivity |
| QVQLQESGGGLVQAGGSLRMSCAASGNIFDADIMGWYRQAPGKERELVASITDGRRTNYADSVKGRYTISRDSEKNTVYLQMNSLKPEDTAVYYCAAIAYPVVPTYFDYDSDYFHWGQGTQVTVIS | high polyreactivity |
| QVQLQESGGGLVQAGGSLRMSCAASGTIVSEANMGWYRQAPGKERELVATIGQGSTTNYADSVKGRFTISRDNAKNTVYLQMNSLKPEETAVYYCAVVTVDPVGFVYWGQGTQVTVSS | low polyreactivity |
| QVQLQESGGGLVQAGGSLRPRCAAGGTIFVSVNMGWYRHAPGEELEFVASITQGATTNYADSLIGRFTISRDNAKNTVYLQMNCQNQEDTAVYYCAVHESGGITFTYWGQGTQVTVSS | high polyreactivity |
| QVQLQESGGGLVQAGGSLRPSCAASGSISDGVPMGWYRQAPGEERELVATTVLGATTNYADSVKGRFTISRGNAKNTVYLQMNSLKPEETEVYYCAAPLRYDKGFSYWGQGTQVTVSS | low polyreactivity |
| QVQLQESGGGLVQAGGSLRQSYAASGYIFPSLAMGWYRQAPGKEREFVAAIGRGSTNNYADSVKGRFTISRDNAKNTAYQQMISLKPEDTAVYYCAAAASPLTRHLYWGQGTQVSVSS | low polyreactivity |
| QVQLQESGGGLVQAGGSMRLSCAASGSISELRPMGWYRQAPGKERELVAGISTGGSTNYADSVKGRFTISRDNAKNTVYLQMNSLKPEDTAVYYCAAALSNVRNVRSPYDYWGQGTQVTVSS | high polyreactivity |
| QVQLQESGGGLVQAGGTLRLSCAANGNISYSNPMGWYRQPPGKEREFVASINPGSTTNYMDSVKGRFTISRDNAKNTVYLQMNSLKPEDTAVYYCNSVFFKSRQGQMYYWGQGSQVTVSS | high polyreactivity |
| QVQLQESGGGLVQASGSIFHEPNMGWHRQAPGKERELVATISDGAITNYADSVKGRFTISRDNAKNTVYLQMNSLKPEDTAVYYCAVVVHLYTDLRYWGQDTQVTVSS | high polyreactivity |
| QVQLQESGGGLVQASGSIFHEPNMGWYRQAPGKERELVAGISSGANTYYADSVKGRFTISRDNAKNTVYLQMNSLKPEDTAVYHCAVVVHLYTDLRYWGQDTQVTVSS | high polyreactivity |
| QVQLQESGGGLVQAVASLRLSCEASVSISSLDYMGWYRQASGKERELVAAIDNGSTTYYADSVKGRLTISRDNAKYTVYLQMNSLKPEDTAVYFCAAVRGRGGTHAYWGQGTQVTVSG | low polyreactivity |
| QVQLQESGGGLVQAVGSLRLSCAASGNISDYYDMGWYRQAPGKERKFVAGIDFGAITNYADSVKGRFTISRDNAKNTEYLQMSSLKPEDTAVYYCAAGVYDWYAYDYWGQGTQVTVSS | high polyreactivity |
| QVQLQESGGGLVQAVGSLRLSCAASGYISSWYPMGWYRQAPGKEREFVATIAPGATTYYADSVKGRFTISRDYAKKTVYLQMNSLKPEDTAVYYCAAGPEKNDFYSYWGQGTQVTVSS | low polyreactivity |
| QVQLQESGGGLVQEGGSLRLSCASSGNISPPADMGWYRQAPGKERELVASMGTGGTTNYADSVKGRFTISRDNAKNTVYLQMNSLKPDDTAVYYCAAVRYEYNPYDYWGQGTQVTVSS | low polyreactivity |
| QVQLQESGGGLVQGGGSLRLSCAASGSIYRSWYMGWYRQAPGKERELVASITEGATTNYAYSVKAALPLAAITRNTVYLQMDSMKPEDTAVYYRAASFGSTYDLVYWGQGTQVTVSS | high polyreactivity |
| QVQLQESGGGLVQPGGSLRLSCAATGTISDSGLMGWYRQAPGKERELVSGISSGGITQYADSVNGRFTISRDNAKNTVYLQMNSLKPEDTAVYWGQGTQVTVSS | low polyreactivity |
| QVQLQESGGGLVQVGGSLRLSCAASGTIFIYGFLGWNRQAPGKERDLVASINLGGITNYADSVKGRFTISRDNAKITVYLQMNSLKPEDTAVYYCAADGGESAWGGYDYWGQGTQGTVSS | low polyreactivity |
| QVQLQESGGGMVQAGGSLRLSCAASGYISWADYMGWYRQAPGKERELVAGIGYGSTTYYADSVKGRFTISRDNAKNTAYLQMNSLKPEDTAVYYCNADVRYGRDHWGQGTQVTVSS | low polyreactivity |

| Sequence | polyreactivity (PSR sort gate) |
| --- | --- |
| QVQLQESGGGMVQAGGSLRLTCAATGYISSCYPMRWYRQAPGKEREFVATIAPGATTYYADSVKGRFTISRDYAKNTVYLQMNSQKPEATAVYVCAAGPENIDFYSYWGQGTQVTVSS | low polyreactivity |
| QVQLQESGGGQVLAGGSLRVSCAASGYIPYSRWMGWNRQAPGKEREFVAGIGYGSSTYYADSVKGRFTISRDNAKNTVYLQMNSLKPEDTAVYYCNASIFFRRNVTQVRMDYWGQGSQVTVSS | high polyreactivity |
| QVQLQESGGGRMQAGGSQRLSCAASGSISYYSDMGWYRQAPGKEREFVAGIGYGTTTNYADSVKGRFTTSRDNAKNTVYLQMISMKPEDTAVYYCAAYQGNGYEFYYWGQGTQVTVRS | low polyreactivity |
| QVQLQESGGLEQAGVSLRLSCAACGNIFYDTYICWYRQGKERELVASIDHAGSTNYADSVIGRFTISRDNAKNTSYLQRNSLKPDDTAVYYCNAEYTKTGALLIPYTYYYAEDYWGQGTQVTVSS | low polyreactivity |
| QVQLQESGGLVQAGGLRLSCAASGSDSYQEDMAWYRQAPGKERELVATISFGANTNYADSVKGRFTISRDNAKNTVYLQMNSLKPEDTAVYYCAAESLFDDYYGYWGQGTQVTVSS | low polyreactivity |
| QVQLQESGGLVQAGGSLRLSCAASGSISGRNVMGWYRQAPGKEREFVASITDGSSTNYADSVKGRFTISRDNAKNTVFLQMNSLKPKDTAVYYCAAYAQGAKSFGYWGRGTQVTVSS | low polyreactivity |
| QVQLQESGGSLVQAGGSLRLSCAASGNILVLPHGLVSPGAERELVATITGGSITYYADSVKGRFTISRDNAKNTVYLQMNSLKPGDTAVYYCAVINIYHRPHPYWGQGTLVTVSS | high polyreactivity |
| QVQLQESGGSLVQAGGSLRLSCAASGSISYPRTMGWYRQAPGKEREFVAGIGVGGTTYYADSVKGRFTISRDNAKITVYLQMNSLKPEDTAVYYCARRRSGPSVLYYYWGQGTQVTVSS | low polyreactivity |
| QVQLQESGGSPVQAGGGLRLSCAASGYISVGSVMGWYRQAPSKERELVASIDQGANTNYADSVKGRFTISRDNAKNNVYLQMNSLKPEDTAVYYCATETTYILNYWGQGTQVTVSS | low polyreactivity |
| QVQLQESGGVLVQAGGDLRLSCAASGNIFRDYIMGWYRQAPGQERDFVAGIDRGANTNYADSVKGRFTISRDNAKNTVYLQMNSLKPEDTAVYYCAVHTAIVPDFIYWGQGTQVTVSS | low polyreactivity |
| QVQLQESGGVLVQAGGSLRLSCAARGYISLAQTIGWYRQAPGKEREFVASIALGSSTYYTDSEKGSFTISRDNAKTTVYLQMNSLKPEDTAVYYCAARVGASYAHDYWGQGTEVTVSS | low polyreactivity |
| QVQLQESGGVLVQAGGSLRLSCAASGSIFVSVTMGWYRQAPGKERELVASIGRGSTTNHADSVKGRFTISRDNAKNIVYLLMNSLKPEDTAVYYCAALESYGKYHGYWGQGTQVTVSS | low polyreactivity |
| QVQLQESGGVLVQAGGSLRLSCAASGSIYDDTYMGWYRQAPGKERELVATIDSGSTTNYADSVKGRITICRDNAKNSVDLQMNTLKPEDTAVYYCAAADSHIDYFDYWGQGTQVTVSS | low polyreactivity |
| QVQLQESGGVQEQEGGSLRQSCAESGTIFLYAYMGWYRQAPGKERELVAAIDVGTTTNYADSVKGRFTICRDNAKNTVYLQMNSLKPDDTAVYYCAANLGYLDDLGYWGQGTQVTVSS | low polyreactivity |
| QVQLQESGRGLVQAGGSLRLSCAASGTISSRWGKGWYLQAPGKERELFASNDQGASTYYADSVKGRFTISRDNAKNTVYLQMNSLKPEDTEVYYCIAVPSSAGDYWGQGTQVTVSS | low polyreactivity |
| QVQLQESGSGLVQAGGSLRLSCAASGAIFPANLMGWYRQAPGKERELVAGISYGSITYCADSVKGRFNISRDNAKNTVYLQMNSLKPEDTAVYYCAVWRPGGDEYYYWGQGTQVTVSS | low polyreactivity |
| QVQLQESGVGLVQAGGCLSCTASCTIFGQGDMCWYRQAPGKERELVATINDGASTYYADSVKGRFTISRDKAKNTVYLQMKSLKPDVTAVYYCAVFTDITTYFGYWGQGTQVTVSS | low polyreactivity |
| QVQLQESGVGLVQAGGSLRLSCAASGYITARDAMVWYRQAPGKEREFVATIASGTTTYYADSVKGSFTISRDNEENTVYLQTNSLKPEDTAVYYCAAPTIQIYPFYYWGQGTQVTVSS | high polyreactivity |
| QVQLQESRGGLVQAGGSLCLSFAASGTIFFDGDMGGYRQAPGKEREFVAAINPGGSGYYADSVKGRLPLAAITHTVYLQMNSLKPEDTAVYYCAAKLFDVYGYYYWGQGTQVTLSS | low polyreactivity |
| QVQLQESSGGLVQAGGSLRMSCAASGTIFHFHIMGWYRQAPGKEREFVAAISYGTSTYYADSVKGRFTISRDNAKKTVYLQMNSQKPEDTAVYYCAVYDDLEVYCWYWGQGTEVTVSS | low polyreactivity |
| QVQLQESVGGLVHAGGSLRLSCAASGSISAVGAMGWYRQAPGKEREFAASVNWGTNTNYADSVKGRFTISRDNAKNTLYLQMNSLKPEDTAVYYCAVLPDWETRHDYWGHGTQVTVSS | low polyreactivity |
| QVQLQESVGGLVQAGGSLRLSCASSGSISNSAAMGWYRQAPGKERELVVSIGHGASSNYADSVKGRFTISRDNAKNTVYLQMNSLKPEDTAVYYCAAYPGFLDGFFYWGQSTQVTVSS | high polyreactivity |
